Publication PMC8610991, “The encapsulin from Thermotoga maritima is a flavoprotein with a symmetry matched ferritin-like cargo protein” (Scientific Reports, 2021)
“And” between values parts separate entries of the source, which are not always exact repeats. Identical values can stand only once.

Key:
T. maritima encapsulin [1] = target: T1, T. maritima encapsulin (Thermotoga maritima, UniProt Q9WZP2); assay: LC-MS of flavin released from purified encapsulin; assay type: binding; conditions: co-purified minor species; exact flavin composition not determined
T1 construct: gene enc; encapsulin shell, codon-optimised gene in pET14, E. coli BL21(DE3), co-expressed with His6-tagged FLP cargo (sub-stoichiometric loading); T = 1 icosahedral shell of 12 pentamers; flavin site between two shell subunits; with Encapsulated ferritin-like protein (FLP cargo)
T1 sequence (Q9WZP2 whole entry): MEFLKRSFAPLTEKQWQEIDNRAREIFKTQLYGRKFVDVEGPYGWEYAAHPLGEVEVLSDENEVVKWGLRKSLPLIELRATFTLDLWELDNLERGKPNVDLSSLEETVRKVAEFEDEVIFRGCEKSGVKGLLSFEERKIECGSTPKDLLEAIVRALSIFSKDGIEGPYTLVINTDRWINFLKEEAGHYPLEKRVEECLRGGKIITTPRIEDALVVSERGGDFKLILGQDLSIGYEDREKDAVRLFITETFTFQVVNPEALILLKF

T. maritima encapsulin [2] = target: T1, T. maritima encapsulin; assay: cryo-EM structure […] A; absorbance, LC-MS of released flavin; assay type: binding; conditions: co-purified flavin; pi-stacking with W90 between two shell subunits; fluorescence quenched until denatured
[3] = target: Thermotoga maritima encapsulin shell protein (Thermotoga maritima) (UniProt Q9WZP2); assay: cryo-EM structure; FLP-loaded encapsulin, co-expressed in E. coli and purified as a complex; 2 mg/mL, 0.05% NP-40; 2D classes, I1 reconstruction of the shell (3.3 Å), C1 reconstruction, symmetry expansion and focused classification of the FLP at a pentameric vertex (shell ~3.5 Å, FLP ~7 Å)
[4] = target: the molecule itself; assay: as above

## Cc1cc2nc3c(=O)[nH]c(=O)nc-3n(C[C@H](O)[C@H](O)[C@H](O)CO)c2cc1C [riboflavin]
T. maritima encapsulin [1]
  LC-MS of flavin released from purified encapsulin: Both FMN and riboflavin were present as the major and minor peaks respectively

## Cc1cc2nc3c(=O)[nH]c(=O)nc-3n(C[C@H](O)[C@H](O)[C@H](O)COP(=O)(O)O)c2cc1C [FMN, flavin mononucleotide]
T. maritima encapsulin [2]
  cryo-EM structure 3.3 A; absorbance, LC-MS of released flavin: additional density near W90 that corresponds to a flavin undergoing π–stacking with the tryptophan

B1: Thermotoga maritima ferritin-like protein (FLP) cargo (natural protein, UniProt Q9WZP3 1-114, looked up)
chain: MADQYHEPVSELTGKDRDFVRALNSLKEEIEAVAWYHQRVVTTKDETVRKILEHNRDEEMEHAAMLLEWLRRNMPGWDEALRTYLFTDKPITEIEEETSGGSENTGGDLGIRKL
notes: ferritin-like protein, native cargo of the Thermotoga maritima encapsulin; Decamer with fivefold symmetry; The map of the cargo (EMD-24002) has no atomic model of its own; a homologous FLP crystal structure (PDB 5DA5) was docked as a rigid body; also called cargo protein; ferritin-like cargo protein; copies: 10
[3]
  stoichiometry N: 3 FLPs/shell and 5 FLPs/shell and 4 FLPs/shell
  stoichiometry N (FLPs per encapsulin): 2
[4]
  stoichiometry N: 10
